Laboratory results as given in patent publication US20070207967A1, “Peptide Inhibitors of Matrix Metalloproteinase Activity” (CTT CANCER TARGETING TECHNOLOGIES OY, priority 2004, published 2007).

What was measured:
[1] = molecular target: pro-MMP-9 (Homo sapiens, UniProt P14780); test: Pro-MMP-9 activation in THP-1 cells, zymography; assay type: cell-based; details: THP-1, pro-MMP-3 and plasminogen, peptides 200 μM
Procedure: Activation of MMP-9. THP-1 cells (40 000/100 μl) or confluent HT1080 cells were incubated for 16 h in the presence or absence of 2.5 μg/ml plasminogen, 0.5 μg/ml pro-MMP-3 (Oncogene Research Products), 40 nM PDBu, and the peptides at a 200 μM concentration unless otherwise indicated. Aliquots of the conditioned media were analyzed by gelatin zymography (9). […] The samples were analyzed by gelatin zymography.

[2] = molecular target: T1, αM integrin I domain (Homo sapiens, UniProt P11215); test: Pro-MMP-9 binding to αM integrin I domain
Procedure: Pro-MMP-9 and gelatin binding to leukocyte αM integrin. Pro-MMP-9 binding to the αM I domain in the presence of peptides was studied as described (12). Gelatin binding to the pro-MMP-^9/αMβ2 integrin complex was studied by immobilizing the integrin αMβ2 (12) or αIIbβ3 as a control (Enzyme Research Laboratories, South Bend, Ind.) (1 μg/well) in TBS/1 mM CaCl2/1 mM MgCl2 followed by saturation of the wells with 1% BSA in PB ST. Pro-MMP-9 (100 ng/well) was incubated for 2 h and the unbound pro-MMP-9 was washed away. Biotinylated gelatin (2.5 μg/ml) was allowed to bind for 30 min at room temperature. Bound gelatin was detected with streptavidin-peroxidase.

[3] = molecular target: T1, αM integrin I domain; details: ref (12); cited from earlier work
[4] = test system: neutrophil recruitment; details: acute inflammation model in mice; ref (48); cited from earlier work
[5] = test system: leukocytes; details: ref (12); cited from earlier work
[6] = test system: β5 integrin-transfected CS-1 melanoma cells; test: 125I-C domain binding to cells; assay type: cell-based, hamster; details: unlabelled proteins 50 μg/ml, peptides 50 μM
Procedure: ^125I-C domain binding to cells. The MMP-9 C domain was labelled with ^125I to a specific activity 0.06 μCi/pmol. The labelled domain retained 40% of the CRV peptide-binding activity as shown by the phage-binding assay. […] After a preincubation of 1.5×10^6 cells in a 200 μl volume on ice for 30 min with the competitors, ^125I-labelled C domain (1×10^6 cpm) was added and incubated for three hours on ice. The cells were transferred to tubes containing 200 μl of dibutyl phthalate/cyclohexane mixture (23:2 vol/vol), centrifuged 7500×g for 10 minutes and snap-frozen (24). The bottom of the tube containing the cells were cut and analyzed with a gamma-counter.

T1 sequence (P11215 150-328 limits assumed): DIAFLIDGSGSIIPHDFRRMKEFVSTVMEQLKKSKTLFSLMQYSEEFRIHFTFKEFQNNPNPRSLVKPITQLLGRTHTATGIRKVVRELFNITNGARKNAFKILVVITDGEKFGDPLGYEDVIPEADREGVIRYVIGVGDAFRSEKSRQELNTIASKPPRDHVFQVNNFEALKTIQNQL
pro-MMP-9, sequence (P14780 20-707 limits assumed): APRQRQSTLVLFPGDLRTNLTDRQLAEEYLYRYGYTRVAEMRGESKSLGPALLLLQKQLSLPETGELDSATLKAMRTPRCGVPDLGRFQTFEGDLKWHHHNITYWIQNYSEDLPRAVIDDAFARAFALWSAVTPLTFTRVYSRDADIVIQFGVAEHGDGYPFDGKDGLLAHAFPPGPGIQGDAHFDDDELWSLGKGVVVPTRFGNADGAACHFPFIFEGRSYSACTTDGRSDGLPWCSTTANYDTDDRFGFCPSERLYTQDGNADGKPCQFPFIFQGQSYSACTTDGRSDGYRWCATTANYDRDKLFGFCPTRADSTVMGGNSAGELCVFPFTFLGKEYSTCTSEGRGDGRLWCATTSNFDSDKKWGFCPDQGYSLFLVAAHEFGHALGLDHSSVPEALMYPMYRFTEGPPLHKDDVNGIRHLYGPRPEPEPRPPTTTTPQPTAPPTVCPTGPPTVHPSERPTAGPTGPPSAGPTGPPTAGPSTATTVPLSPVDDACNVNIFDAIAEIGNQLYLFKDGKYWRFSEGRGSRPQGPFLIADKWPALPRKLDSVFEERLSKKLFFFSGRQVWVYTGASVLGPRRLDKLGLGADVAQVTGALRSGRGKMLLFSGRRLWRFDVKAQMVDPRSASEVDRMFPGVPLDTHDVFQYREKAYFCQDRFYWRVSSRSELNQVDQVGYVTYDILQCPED

Effect on pro-MMP-9 activation [1]	Effect on interaction of MMP-9 with the leukocyte αM integrin I domain [2]	Substance	Competition with pro-MMP-9 binding to I domain of αM integrin subunit [3]	Inhibition of neutrophil recruitment [4]	Inhibition of migration of leukocytes [5]	Competition of 125I-labelled MMP-9 C domain binding to β5 integrin-transfected CS-1 cells [6]
augmented	blocked	ADGACILWMDDGWCGAAG	competed	active in vivo inhibiting neutrophil recruitment	inhibited migration of leukocytes	–
–	–	GRGDSP [reference compound]	–	–	–	No competition
